Residue numbers refer to the chain shown, from its start. Names may count otherwise.
B1: anti-CD20 human IgG1 L234A/L235A/G236R (antibody)
heavy: not shown
light: QIVLSQSPAILSASPGEKVTMTCRASSSVSYIHWFQQKPGSSPKPWIYATSNLASGVPVRFSGSGSGTSYSLTISRVEAEDAATYYCQQWTSNPPTFGGGTKLEIKRTVAAPSVFIFPPSDEQLKSGTASVVCLLNNFYPREAKVQWKVDNALQSGNSQESVTEQDSKDSTYSLSSTLTLSKADYEKHKVYACEVTHQGLSSPVTKSFNRGEC
notes: also called 1-2; 2-2; copies: 2 + 2
B2: anti-CD20 human IgG1 L234E/G236R (antibody)
heavy: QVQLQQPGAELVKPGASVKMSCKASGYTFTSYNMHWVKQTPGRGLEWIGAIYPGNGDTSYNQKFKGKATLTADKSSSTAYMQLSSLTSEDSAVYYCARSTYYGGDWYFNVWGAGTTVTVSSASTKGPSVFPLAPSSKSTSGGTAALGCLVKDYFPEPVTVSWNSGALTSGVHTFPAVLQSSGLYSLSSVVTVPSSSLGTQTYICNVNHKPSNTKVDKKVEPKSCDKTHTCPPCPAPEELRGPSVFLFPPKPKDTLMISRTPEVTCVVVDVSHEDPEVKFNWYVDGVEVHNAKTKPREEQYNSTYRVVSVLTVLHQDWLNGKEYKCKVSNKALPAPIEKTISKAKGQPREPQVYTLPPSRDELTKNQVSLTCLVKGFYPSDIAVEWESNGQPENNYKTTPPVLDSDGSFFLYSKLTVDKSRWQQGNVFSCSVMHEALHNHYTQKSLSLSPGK
light: B1 light
notes: also called 1-39; 2-15; copies: 2 + 2
B3: anti-CD20 human IgG1 L234E/L235S/G236R (antibody)
heavy: QVQLQQPGAELVKPGASVKMSCKASGYTFTSYNMHWVKQTPGRGLEWIGAIYPGNGDTSYNQKFKGKATLTADKSSSTAYMQLSSLTSEDSAVYYCARSTYYGGDWYFNVWGAGTTVTVSSASTKGPSVFPLAPSSKSTSGGTAALGCLVKDYFPEPVTVSWNSGALTSGVHTFPAVLQSSGLYSLSSVVTVPSSSLGTQTYICNVNHKPSNTKVDKKVEPKSCDKTHTCPPCPAPEESRGPSVFLFPPKPKDTLMISRTPEVTCVVVDVSHEDPEVKFNWYVDGVEVHNAKTKPREEQYNSTYRVVSVLTVLHQDWLNGKEYKCKVSNKALPAPIEKTISKAKGQPREPQVYTLPPSRDELTKNQVSLTCLVKGFYPSDIAVEWESNGQPENNYKTTPPVLDSDGSFFLYSKLTVDKSRWQQGNVFSCSVMHEALHNHYTQKSLSLSPGK
light: B1 light
notes: also called 1-44; copies: 2 + 2
B4: anti-CD20 human IgG1 L234E/L235V/G236R (antibody)
heavy: B3 heavy with S239V
light: B1 light
notes: also called 1-46; 2-16; copies: 2 + 2
B5: anti-CD20 human IgG1 L234A/G236R (antibody)
heavy: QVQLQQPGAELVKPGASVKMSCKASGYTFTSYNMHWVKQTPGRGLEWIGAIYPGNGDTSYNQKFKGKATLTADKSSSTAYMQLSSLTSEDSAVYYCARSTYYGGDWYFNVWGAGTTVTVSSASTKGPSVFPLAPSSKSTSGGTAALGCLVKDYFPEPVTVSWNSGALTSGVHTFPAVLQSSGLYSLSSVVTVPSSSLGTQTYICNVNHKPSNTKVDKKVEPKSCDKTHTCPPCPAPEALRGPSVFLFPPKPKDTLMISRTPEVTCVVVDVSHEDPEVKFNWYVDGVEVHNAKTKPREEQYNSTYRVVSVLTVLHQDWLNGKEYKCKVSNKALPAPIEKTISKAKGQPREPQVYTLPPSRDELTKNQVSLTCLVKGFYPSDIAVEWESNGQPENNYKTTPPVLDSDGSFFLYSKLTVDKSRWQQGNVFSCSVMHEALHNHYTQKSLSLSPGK
light: B1 light
notes: also called 1-9; copies: 2 + 2
B6: anti-CD20 human IgG1 L234G/L235D/G236R (antibody)
heavy: B3 heavy with E238G, S239D
light: B1 light
notes: also called 1-48; copies: 2 + 2
B7: anti-CD20 human IgG1 L234G/L235A/G236R (antibody)
heavy: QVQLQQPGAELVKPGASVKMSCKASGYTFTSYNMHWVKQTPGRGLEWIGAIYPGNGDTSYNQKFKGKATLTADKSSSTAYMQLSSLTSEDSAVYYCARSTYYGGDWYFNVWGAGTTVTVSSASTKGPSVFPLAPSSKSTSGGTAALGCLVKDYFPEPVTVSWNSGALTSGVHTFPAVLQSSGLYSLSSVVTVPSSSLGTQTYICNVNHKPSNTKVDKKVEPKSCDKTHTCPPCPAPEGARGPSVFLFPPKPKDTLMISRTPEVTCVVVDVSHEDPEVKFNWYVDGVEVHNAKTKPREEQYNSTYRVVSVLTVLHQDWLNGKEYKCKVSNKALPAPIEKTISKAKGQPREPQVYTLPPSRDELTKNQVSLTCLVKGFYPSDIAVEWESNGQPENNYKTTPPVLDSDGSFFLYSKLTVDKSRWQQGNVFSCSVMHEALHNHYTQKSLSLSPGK
light: B1 light
notes: also called 1-47; copies: 2 + 2
B8: anti-CD20 human IgG1 L234E/L235Q/G236R (antibody)
heavy: B3 heavy with S239Q
light: B1 light
notes: also called 1-42; copies: 2 + 2
B9: anti-CD20 human IgG1 L234A/L235G/G236R (antibody)
heavy: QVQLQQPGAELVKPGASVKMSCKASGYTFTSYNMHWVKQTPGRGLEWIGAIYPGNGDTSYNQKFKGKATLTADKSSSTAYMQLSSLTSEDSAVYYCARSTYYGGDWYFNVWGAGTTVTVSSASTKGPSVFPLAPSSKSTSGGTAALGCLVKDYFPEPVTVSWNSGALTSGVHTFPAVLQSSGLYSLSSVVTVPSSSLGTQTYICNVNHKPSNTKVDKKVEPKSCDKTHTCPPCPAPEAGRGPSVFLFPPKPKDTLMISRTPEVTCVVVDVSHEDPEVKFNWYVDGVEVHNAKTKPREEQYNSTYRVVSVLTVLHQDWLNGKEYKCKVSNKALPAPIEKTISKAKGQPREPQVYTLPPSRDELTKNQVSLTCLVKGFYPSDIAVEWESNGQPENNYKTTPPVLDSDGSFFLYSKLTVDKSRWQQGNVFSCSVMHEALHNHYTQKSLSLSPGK
light: B1 light
notes: also called 1-5; copies: 2 + 2
B10: anti-CD20 human IgG1 L234A/L235Q/G236R (antibody)
heavy: not shown
light: B1 light
notes: also called 1-12; copies: 2 + 2
B11: anti-CD20 human IgG1 L234E/L235K/G236R (antibody)
heavy: B3 heavy with S239K
light: B1 light
notes: also called 1-38; copies: 2 + 2
B12: anti-CD20 human IgG1 L234A/L235R/G236R (antibody)
heavy: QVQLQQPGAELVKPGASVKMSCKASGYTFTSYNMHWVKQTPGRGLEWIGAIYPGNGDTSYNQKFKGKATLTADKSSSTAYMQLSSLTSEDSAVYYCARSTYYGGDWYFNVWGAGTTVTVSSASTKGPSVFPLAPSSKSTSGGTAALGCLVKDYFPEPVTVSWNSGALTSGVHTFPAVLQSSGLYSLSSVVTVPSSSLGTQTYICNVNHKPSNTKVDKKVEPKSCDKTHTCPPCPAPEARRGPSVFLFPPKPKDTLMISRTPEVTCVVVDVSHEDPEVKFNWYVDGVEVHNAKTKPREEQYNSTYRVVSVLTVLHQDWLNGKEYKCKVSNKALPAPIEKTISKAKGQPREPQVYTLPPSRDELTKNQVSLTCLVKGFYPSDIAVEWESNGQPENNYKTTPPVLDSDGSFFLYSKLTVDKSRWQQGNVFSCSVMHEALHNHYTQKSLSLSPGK
light: B1 light
notes: also called 1-13; copies: 2 + 2
B13: anti-CD20 human IgG1 L234G/G236R (antibody)
heavy: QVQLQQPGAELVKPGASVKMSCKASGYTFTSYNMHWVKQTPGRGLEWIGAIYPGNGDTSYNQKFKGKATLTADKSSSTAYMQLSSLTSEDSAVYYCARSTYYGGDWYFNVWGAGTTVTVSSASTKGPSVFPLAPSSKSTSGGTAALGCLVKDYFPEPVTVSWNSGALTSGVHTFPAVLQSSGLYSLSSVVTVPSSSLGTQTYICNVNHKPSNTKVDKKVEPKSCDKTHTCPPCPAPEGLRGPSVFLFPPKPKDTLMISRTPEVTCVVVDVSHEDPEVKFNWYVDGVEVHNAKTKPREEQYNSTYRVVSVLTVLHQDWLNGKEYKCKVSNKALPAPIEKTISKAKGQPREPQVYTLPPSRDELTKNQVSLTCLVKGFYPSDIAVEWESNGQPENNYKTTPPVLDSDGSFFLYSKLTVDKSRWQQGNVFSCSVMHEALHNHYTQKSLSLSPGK
light: B1 light
notes: also called 1-54; 2-85; copies: 2 + 2
B14: anti-CD20 human IgG1 L234D/L235T/G236R (antibody)
heavy: B3 heavy with E238D, S239T
light: B1 light
notes: also called 1-30; 2-11; copies: 2 + 2
B15: anti-CD20 human IgG1 L234E/L235E/G236R (antibody)
heavy: B3 heavy with S239E
light: B1 light
notes: also called 1-34; copies: 2 + 2
B16: anti-CD20 human IgG1 L234A/L235I/G236R (antibody)
heavy: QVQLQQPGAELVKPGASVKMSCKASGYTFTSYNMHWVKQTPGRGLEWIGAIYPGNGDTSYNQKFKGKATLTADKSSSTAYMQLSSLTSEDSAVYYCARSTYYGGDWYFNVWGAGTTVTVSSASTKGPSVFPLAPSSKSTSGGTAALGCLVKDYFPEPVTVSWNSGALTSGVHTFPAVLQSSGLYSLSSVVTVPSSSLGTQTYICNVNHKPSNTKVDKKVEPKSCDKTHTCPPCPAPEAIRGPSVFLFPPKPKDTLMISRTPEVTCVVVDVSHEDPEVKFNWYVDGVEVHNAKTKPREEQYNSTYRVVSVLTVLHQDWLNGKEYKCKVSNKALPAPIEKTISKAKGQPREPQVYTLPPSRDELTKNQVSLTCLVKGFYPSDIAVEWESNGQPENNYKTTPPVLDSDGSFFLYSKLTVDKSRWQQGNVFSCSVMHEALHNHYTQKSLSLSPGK
light: B1 light
notes: also called 1-7; copies: 2 + 2
B17: anti-CD20 human IgG1 L234G/L235H/G236R (antibody)
heavy: B3 heavy with E238G, S239H
light: B1 light
notes: also called 1-51; 2-17; copies: 2 + 2
B18: anti-CD20 human IgG1 L234E/L235R/G236R (antibody)
heavy: B3 heavy with S239R
light: B1 light
notes: also called 1-43; copies: 2 + 2
B19: anti-CD20 human IgG1 L234D/L235D/G236R (antibody)
heavy: B3 heavy with E238D, S239D
light: B1 light
notes: also called 1-18; copies: 2 + 2
B20: anti-CD20 human IgG1 L234D/L235Q/G236R (antibody)
heavy: B3 heavy with E238D, S239Q
light: B1 light
notes: also called 1-27; 2-9; copies: 2 + 2
B21: anti-CD20 human IgG1 L234G/L235E/G236R (antibody)
heavy: B3 heavy with E238G, S239E
light: B1 light
notes: also called 1-49; copies: 2 + 2
B22: anti-CD20 human IgG1 L234E/L235A/G236R (antibody)
heavy: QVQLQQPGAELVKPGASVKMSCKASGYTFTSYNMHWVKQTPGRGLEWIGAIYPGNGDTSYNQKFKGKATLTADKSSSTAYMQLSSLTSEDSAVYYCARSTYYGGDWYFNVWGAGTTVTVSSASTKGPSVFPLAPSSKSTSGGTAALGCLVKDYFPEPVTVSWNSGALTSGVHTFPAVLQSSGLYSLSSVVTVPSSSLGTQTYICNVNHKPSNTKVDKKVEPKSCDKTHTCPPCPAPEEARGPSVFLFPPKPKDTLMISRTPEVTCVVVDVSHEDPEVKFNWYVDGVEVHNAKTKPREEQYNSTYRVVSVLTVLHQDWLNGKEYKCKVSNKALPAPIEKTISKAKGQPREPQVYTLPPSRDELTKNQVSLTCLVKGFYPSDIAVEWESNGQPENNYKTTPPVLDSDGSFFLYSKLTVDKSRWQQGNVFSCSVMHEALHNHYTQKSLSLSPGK
light: B1 light
notes: also called 1-32; copies: 2 + 2
B23: anti-CD20 human IgG1 L234D/L235E/G236R (antibody)
heavy: B3 heavy with E238D, S239E
light: B1 light
notes: also called 1-19; copies: 2 + 2
B24: anti-CD20 human IgG1 L234A/L235D/G236R (antibody)
heavy: not shown
light: B1 light
notes: also called 1-3; copies: 2 + 2
B25: anti-CD20 human IgG1 L234D/L235V/G236R (antibody)
heavy: B3 heavy with E238D, S239V
light: B1 light
notes: also called 1-31; copies: 2 + 2
B26: anti-CD20 human IgG1 L234A/L235K/G236R (antibody)
heavy: not shown
light: B1 light
notes: also called 1-8; copies: 2 + 2
B27: anti-CD20 human IgG1 L234A/L235E/G236R (antibody)
heavy: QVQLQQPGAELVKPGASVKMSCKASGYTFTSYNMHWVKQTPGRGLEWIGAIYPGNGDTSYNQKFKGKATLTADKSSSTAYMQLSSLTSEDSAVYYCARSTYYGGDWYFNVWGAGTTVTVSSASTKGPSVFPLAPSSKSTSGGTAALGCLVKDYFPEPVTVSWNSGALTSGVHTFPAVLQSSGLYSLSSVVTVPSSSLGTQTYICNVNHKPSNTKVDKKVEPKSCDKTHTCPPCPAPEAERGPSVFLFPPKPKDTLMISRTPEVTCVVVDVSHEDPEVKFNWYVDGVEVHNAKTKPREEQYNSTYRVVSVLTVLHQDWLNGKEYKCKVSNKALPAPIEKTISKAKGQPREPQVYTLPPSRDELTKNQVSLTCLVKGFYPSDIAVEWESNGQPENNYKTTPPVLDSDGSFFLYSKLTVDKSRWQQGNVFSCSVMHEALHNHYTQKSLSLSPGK
light: B1 light
notes: also called 1-4; copies: 2 + 2
B28: anti-CD20 human IgG1 L234E/L235T/G236R (antibody)
heavy: B3 heavy with S239T
light: B1 light
notes: also called 1-45; copies: 2 + 2
B29: anti-CD20 human IgG1 L234G/L235G/G236R (antibody)
heavy: B3 heavy with E238G, S239G
light: B1 light
notes: also called 1-50; copies: 2 + 2
B30: anti-CD20 human IgG1 L234E/L235G/G236R (antibody)
heavy: B3 heavy with S239G
light: B1 light
notes: also called 1-35; copies: 2 + 2
B31: anti-CD20 human IgG1 L234E/L235H/G236R (antibody)
heavy: B3 heavy with S239H
light: B1 light
notes: also called 1-36; 2-13; copies: 2 + 2
B32: anti-CD20 human IgG1 L234A/L235V/G236R (antibody)
heavy: not shown
light: B1 light
notes: also called 1-16; copies: 2 + 2
B33: anti-CD20 human IgG1 L234A/L235H/G236R (antibody)
heavy: not shown
light: B1 light
notes: also called 1-6; copies: 2 + 2
B34: anti-CD20 human IgG1 L234A/L235M/G236R (antibody)
heavy: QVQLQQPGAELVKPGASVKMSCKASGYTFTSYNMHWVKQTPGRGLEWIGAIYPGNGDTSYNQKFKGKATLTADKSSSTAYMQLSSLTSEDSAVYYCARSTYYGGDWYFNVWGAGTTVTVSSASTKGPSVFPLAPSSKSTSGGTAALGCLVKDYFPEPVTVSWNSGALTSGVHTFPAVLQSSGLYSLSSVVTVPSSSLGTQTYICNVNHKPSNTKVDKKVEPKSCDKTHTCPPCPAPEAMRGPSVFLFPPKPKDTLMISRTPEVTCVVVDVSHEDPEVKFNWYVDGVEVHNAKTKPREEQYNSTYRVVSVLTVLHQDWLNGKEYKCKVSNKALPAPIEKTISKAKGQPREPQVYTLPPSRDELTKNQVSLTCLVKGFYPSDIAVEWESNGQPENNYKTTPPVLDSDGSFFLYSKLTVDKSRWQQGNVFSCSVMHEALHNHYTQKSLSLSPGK
light: B1 light
notes: also called 1-10; copies: 2 + 2
B35: anti-CD20 human IgG1 L234D/L235N/G236R (antibody)
heavy: B3 heavy with E238D, S239N
light: B1 light
notes: also called 1-26; copies: 2 + 2
B36: anti-CD20 human IgG1 L234D/L235R/G236R (antibody)
heavy: B3 heavy with E238D, S239R
light: B1 light
notes: also called 1-28; copies: 2 + 2
B37: anti-CD20 human IgG1 L234D/L235A/G236R (antibody)
heavy: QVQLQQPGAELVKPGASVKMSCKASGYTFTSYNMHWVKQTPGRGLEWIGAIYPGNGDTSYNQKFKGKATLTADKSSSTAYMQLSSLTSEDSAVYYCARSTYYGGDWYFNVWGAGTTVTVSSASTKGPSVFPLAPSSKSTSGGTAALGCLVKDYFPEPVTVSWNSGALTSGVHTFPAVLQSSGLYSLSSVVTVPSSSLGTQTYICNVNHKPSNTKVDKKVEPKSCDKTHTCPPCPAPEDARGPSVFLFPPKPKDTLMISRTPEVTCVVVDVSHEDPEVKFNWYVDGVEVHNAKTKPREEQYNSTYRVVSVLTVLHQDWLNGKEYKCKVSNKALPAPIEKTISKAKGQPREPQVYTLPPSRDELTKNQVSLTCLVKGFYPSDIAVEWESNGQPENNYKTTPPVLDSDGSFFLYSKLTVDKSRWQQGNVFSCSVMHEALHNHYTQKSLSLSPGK
light: B1 light
notes: also called 1-17; copies: 2 + 2
B38: anti-CD20 human IgG1 L234D/L235G/G236R (antibody)
heavy: B3 heavy with E238D, S239G
light: B1 light
notes: also called 1-20; copies: 2 + 2
B39: anti-CD20 human IgG1 L234D/L235M/G236R (antibody)
heavy: B3 heavy with E238D, S239M
light: B1 light
notes: also called 1-25; copies: 2 + 2
B40: anti-CD20 human IgG1 L234D/G236R (antibody)
heavy: not shown
light: B1 light
notes: also called 1-24; 2-8; copies: 2 + 2
B41: anti-CD20 human IgG1 L234D/L235I/G236R (antibody)
heavy: B3 heavy with E238D, S239I
light: B1 light
notes: also called 1-22; copies: 2 + 2

Target: T1, Histidine-tagged recombinant human FcγRI (CD64) (human, UniProt P12314 16-288)
T1 construct: bought; also called Sino Biological Cat. No. 12056-H08H
Assay: SPR, culture supernatant, captured His-FcγRI;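 also: biacore T200 SPR at 25 °C, anti-His capture, supernatants of HEK293 cells expressing IgG1 Fc variants injected 1 min, reference-subtracted response read 55 s after injection start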

Binder | Mean binding response [RU]
B1 | 30.7
B2 | 17.6
B3 | 39.2
B4 | 18.4
B5 | 8
B6 | 23.6
B7 | 23
B8 | 33.7
B9 | 27.6
B10 | 34.3
B11 | 34.1
B12 | 26.9
B13 | 28.5
B14 | 4.3
B15 | 30.9
B16 | 28.4
B17 | 19
B18 | 26.7
B19 | 22
B20 | 8.3
B21 | 31.8

Binder | Mean binding response [RU]
B22 | 44.1
B23 | 22.1
B24 | 28
B25 | 27.2
B26 | 34.2
B27 | 31.7
B28 | 29.6
B29 | 29.5
B30 | 71.2
B31 | 21.4
B32 | 25.8
B33 | 23
B34 | 27.4
B35 | 26.5
B36 | 47
B37 | 29.6
B38 | 27.3
B39 | 28.4
B40 | 11.9
B41 | 25.3
